Assay results reported in patent publication US20170044230A1 (USTAV ORGANICKE CHEMIE A BIOCHEMIE AV CR, V.V.I., priority 2014, published 2017).
Non-standard residues stand in square brackets, D forms with d. Residues, ends and D or L forms follow the SMILES beside them. No end group written: not given here. *: point of attachment. 1Nal = N[C@@H](Cc1cccc2ccccc12)C(=O)O; Palmitoyl = CCCCCCCCCCCCCCCC(=O)*; Decanoyl = CCCCCCCCCC(=O)*; Dap = NC[C@H](N)C(=O)O; Sar = CNCC(=O)O

Experiments:
[1] = molecular target: T1, human GHS-R1a receptor (Homo sapiens, UniProt Q92847); assay: Competitive binding studies (displacement of 125I-ghrelin); details: for affinity for GHS-R1a compared with ghrelin: in words; for % of ghrelin binding: relative to ghrelin = 100
T1 construct: purchased Multispan, Hayward, Calif., USA; host or cells: HEK293T cells, isolated plasma membranes
T1 sequence (Q92847 whole entry): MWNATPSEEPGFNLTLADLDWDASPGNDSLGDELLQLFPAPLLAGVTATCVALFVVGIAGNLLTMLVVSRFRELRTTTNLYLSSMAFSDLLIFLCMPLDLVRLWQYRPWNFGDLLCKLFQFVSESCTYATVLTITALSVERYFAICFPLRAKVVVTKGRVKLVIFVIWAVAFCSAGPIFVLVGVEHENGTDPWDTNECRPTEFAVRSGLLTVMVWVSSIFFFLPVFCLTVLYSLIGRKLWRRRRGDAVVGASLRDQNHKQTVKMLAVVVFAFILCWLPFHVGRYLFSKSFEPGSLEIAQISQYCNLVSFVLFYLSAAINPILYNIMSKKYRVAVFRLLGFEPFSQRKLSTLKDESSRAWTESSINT
Protocol: Isolated plasma membranes from the HEK293T cells with transfected human GHS-R1a receptor (Multispan, Hayward, Calif., USA) were used. […] Experiments were carried out in duplicates at least three times. Competitive binding curves were plotted using GraphPad Prism Software (San Diego, Calif., USA) while comparing the best fit for single binding sites models.

[2] = tested on: fed C57BL/6 male mice; assay: Effect of SC administered ghrelin analogs on food intake; type: in vivo; details: for maximal effect at 5 mg/kg on food intake: SC 5 mg/kg, evaluated 480 min after administration; for ED50 (250 min after injection), effect on food intake: SC, fed mice
Protocol: All of the experiments followed the ethical guidelines for animal experiments and Czech Republic law 246/1992 and were approved by the committee for experiments with laboratory animals of the Academy of Sciences of the Czech Republic. Male C57BL/6 mice (Charles River, Germany) were housed at a temperature 22±2° C. under a daily cycle of 12/12 h light/dark (light from 6:00) with free access to water and a standard chow diet St-1 which contained […] of calories from protein, fat and carbohydrate, respectively, and its energy content was 3.4 kcal/g (Mlýn Kocanda, Praha, Czech Republic). Mice were placed into separate cages for one week before experiment, they had free access to water and food pellets. Closely before the experiment, the food pellets were removed from the cages. […] 15 min after the injection, mice were given preweighed food pellets. Food intake was monitored for 8-10 hours at 30-min intervals. Mice had free access to water during the experiment. Experiments were performed at least twice for each tested compound, each experimental group had at least 5 mice.
Data from food intake experiments were analyzed by one-way ANOVA followed by Dunnett's post-hoc test using GraphPad Prism Software (San Diego, Calif., USA), P<0.05 was considered statistically significant. ED50 values were calculated using GraphPad Prism Software as the dose of the tested compound required to elicit half-maximal effect at 250 min after administration of the corresponding compound.
Food intake was monitored for […] after administration of the compounds. ED50 values were determined 250 min after administration. Maximal effect on food intake was evaluated […] after administration of the compounds at a dose of 5 mg/kg of body weight. NT—not tested.

[3] = molecular target: T2, human GHS-R1a receptor (growth hormone secretagogue receptor 1a) (human, UniProt Q92847 1-366); assay: competitive displacement of 125I-ghrelin, membranes of HEK293T cells with transfected human GHS-R1a
T2 construct: whole, on cells; Functional assays: HEK-293T cells transiently transfected with human GHS-R1a; also called ghrelin receptor
T2 sequence (Q92847 whole entry): as above
Protocol: Competitive binding studies were performed according to the principles of Motulsky and Neubig (Motulsky & Neubig, 2002). Isolated plasma membranes from the HEK293T cells with transfected human GHS-R1a receptor (Multispan, Hayward, Calif., USA) were used. […] The binding reaction was stopped by the addition of ice-cold washing buffer (20 mM Tris pH 7.4, 10 mM MgCl₂, 2.5 mM EDTA, 0.015% Triton X-100) followed by rapid filtration over GF/C filters (Whatman, Clifton, N.J., USA) presoaked with 0.5% PEI in binding buffer using a Brandel cell harvester (Brandel Inc., Gaithersburg, Md., USA). Bound radioactivity was determined by gamma counting (Wizard 1470 Automatic Gamma Counter; PerkinElmer Life and Analytical Sciences, Waltham, Mass.).

[4] = molecular target: T2, human GHS-R1a receptor (growth hormone …); assay: cell-based or functional assay

Molecule | affinity for GHS-R1a compared with ghrelin [1] | % of ghrelin binding [1] | maximal effect at 5 mg/kg on food intake [2] | ED50 (250 min after injection), effect on food intake [2] | % of ghrelin binding [3] | Ki [3] | Ca^2+ - EC50 [nM] (intracellular calcium mobilization, Fluo-4AM) [4] | IP1 - EC50 [nM] (inositol phosphate accumulation, IP-One HTRF) [4]
CCCCCCCCCC(=O)NC[C@H](NC(=O)[C@H](CO)NC(=O)CNC)C(=O)N[C@@H](Cc1ccccc1)C(=O)N[C@@H](CC(C)C)C(=O)N[C@@H](CO)C(=O)N1CCC[C@H]1C(=O)N[C@@H](CCC(=O)O)C(=O)N[C@@H](Cc1c[nH]cn1)C(=O)N[C@@H](CCC(N)=O)C(=O)N[C@@H](CCCCN)C(=O)N[C@@H](C)C(=O)N[C@@H](CCC(N)=O)C(=O)N[C@@H](CCC(N)=O)C(=O)N[C@@H](CCCNC(=N)N)C(=O)N[C@@H](CCCCN)C(=O)N[C@@H](CCC(=O)O)C(=O)N[C@@H](CO)C(=O)N[C@@H](CCCCN)C(=O)N[C@@H](CCCCN)C(=O)N1CCC[C@H]1C(=O)N1CCC[C@H]1C(=O)N[C@@H](C)C(=O)N[C@@H](CCCCN)C(=O)N[C@@H](CC(C)C)C(=O)N[C@@H](CCC(N)=O)C(=O)N1CCC[C@H]1C(=O)N[C@@H](CCCNC(=N)N)C(=O)O [Analog 1] | higher affinities for GHS-R1a than ghrelin | 183% | 218.8 % of Dpr^3ghr | 3.90 mg/kg | – | – | – | –
CCCCCCCCCC(=O)NC[C@H](NC(=O)[C@H](CO)NC(=O)CNC)C(=O)N[C@@H](Cc1cccc2ccccc12)C(=O)N[C@@H](CC(C)C)C(=O)N[C@@H](CO)C(=O)N1CCC[C@H]1C(=O)N[C@@H](CCC(=O)O)C(=O)N[C@@H](Cc1c[nH]cn1)C(=O)N[C@@H](CCC(N)=O)C(=O)N[C@@H](CCCCN)C(=O)N[C@@H](C)C(=O)N[C@@H](CCC(N)=O)C(=O)N[C@@H](CCC(N)=O)C(=O)N[C@@H](CCCNC(=N)N)C(=O)N[C@@H](CCCCN)C(=O)N[C@@H](CCC(=O)O)C(=O)N[C@@H](CO)C(=O)N[C@@H](CCCCN)C(=O)N[C@@H](CCCCN)C(=O)N1CCC[C@H]1C(=O)N1CCC[C@H]1C(=O)N[C@@H](C)C(=O)N[C@@H](CCCCN)C(=O)N[C@@H](CC(C)C)C(=O)N[C@@H](CCC(N)=O)C(=O)N1CCC[C@H]1C(=O)N[C@@H](CCCNC(=N)N)C(=O)O [Analog 3] (H-[Sar]S[Dap](Decanoyl)[1Nal]LSPEHQKAQQRKESKKPPAKLQPR-OH; N-terminus and C-terminus assumed) | higher affinities for GHS-R1a than ghrelin | 176% | 220.3 % of Dpr^3ghr | 0.64 mg/kg | – | – | – | –
XSXXLSPEHQKAQQRKESKKPPAKLQPR (not fully specified; sarcosine (Sar) at position 1; diaminopropionic acid N-octanoyl (Dpr-N-oct) at position 3; dichlorophenylalanine (PheCl2) at position 4, Synthetic ghrelin analog) [ghrelin analog no. 13, (Sar)S(Dpr-N-oct)(PheCl2)LSPEHQKAQQRKESKKPPAKLQPR] | – | – | – | – | 47% | 2.45 nM | – | –
XSXFLSPEHQKAQQRKESKKPPAKLQPR (sarcosine (Sar) at position 1; diaminopropionic acid N-myristoyl (Dpr-N-myr) at position 3, Synthetic ghrelin analog; also called analog 2) [ghrelin analog no. 2, (Sar)S(Dpr-N-myr)FLSPEHQKAQQRKESKKPPAKLQPR] | – | – | – | – | 54% | 2.1 nM | 36.6 nM | 7.1 nM
XSXFLSPEHQKAQQRKESKKPPAKLQPR (sarcosine (Sar) at position 1; diaminopropionic acid N-9-decenoyl (Dpr-N-9-decen) at position 3, Synthetic ghrelin analog) [ghrelin analog no. 12, (Sar)S(Dpr-N-9-decen)FLSPEHQKAQQRKESKKPPAKLQPR] | – | – | – | – | 76% | 1.51 nM | – | –
XSXXLSPEHQKAQQRKESKKPPAKLQPR (sarcosine (Sar) at position 1; diaminopropionic acid N-octanoyl (Dpr-N-oct) at position 3; tertbutylalanine (tBu) at position 4, Synthetic ghrelin analog) [ghrelin analog no. 10, (Sar)S(Dpr-N-oct)(tBu)LSPEHQKAQQRKESKKPPAKLQPR] | – | – | – | – | 24% | 4.71 nM | – | –
XSXXLSPEHQKAQQRKESKKPPAKLQPR (sarcosine (Sar) at position 1; diaminopropionic acid N-myristoyl (Dpr-N-myr) at position 3; 1-naphtylalanine (1-Nal) at position 4, Synthetic ghrelin analog) [ghrelin analog no. 4, (Sar)S(Dpr-N-myr)(1-Nal)LSPEHQKAQQRKESKKPPAKLQPR] | – | – | – | – | 57% | 2.01 nM | 10.9 nM | 9.75 nM
XSXFLSPEHQKAQQRKESKKPPAKLQPR (sarcosine (Sar) at position 1; diaminopropionic acid N-decanoyl (Dpr-N-dec) at position 3, Synthetic ghrelin analog) [ghrelin analog no. 1, (Sar)S(Dpr-N-dec)FLSPEHQKAQQRKESKKPPAKLQPR] | – | – | – | – | 183% | 0.63 nM | 9.66 nM | 12.6 nM
[Sar]S[Dap](Decanoyl)FLSPEHQKAQQRK(Palmitoyl)ES [ghrelin analog no. 15, (Sar)S(Dpr-N-dec)FLSPEHQKAQQRK(N-palm)ES] | – | – | – | – | 19% | 5.99 nM | – | –
XSXXLSPEHQKAQQRKESKKPPAKLQPR (not fully specified; sarcosine (Sar) at position 1; diaminopropionic acid N-octanoyl (Dpr-N-oct) at position 3; naphtylalanine (Nal) at position 4; Lys 24 N-palmitoyl (K(N-palm)), Synthetic ghrelin analog) [ghrelin analog no. 9, (Sar)S(Dpr-N-oct)(Nal)LSPEHQKAQQRKESKKPPAK(N-palm)LQPR] | – | – | – | – | 5% | 23.3 nM | – | –
XSXXLSPEHQKAQQRKESKKPPAKLQPR (sarcosine (Sar) at position 1; diaminopropionic acid N-octanoyl (Dpr-N-oct) at position 3; cyclohexylalanine (Cha) at position 4; Lys 24 N-palmitoyl (K(N-palm)), Synthetic ghrelin analog) [ghrelin analog no. 8, (Sar)S(Dpr-N-oct)(Cha)LSPEHQKAQQRKESKKPPAK(N-palm)LQPR] | – | – | – | – | 6% | 20.8 nM | – | –
